Test results taken from patent publication US20070128190A1.
Numbering of substitutions follows the chain as printed. Names may count otherwise.

B1: TMC-2206 (antibody, mouse IgG1, V domains shown)
VH: QVQLKESGPGLVAPSQSLSITCTVSGFSLTNYGIHWVRQPPGKGLEWLGVIWARGFTNYNSALMSRLIITKDNSQSQVFLKMNSLQPDDSATYFCARANDGVYYAMDYWGQGTSVTVSS
VL: QFVLTQSPAFLSASPGEKVTMTCSANSSVNYIHWYQQKSGTSPKKWIYDTSKLASGVPVRFSGSGSGTSYSLTISSMETEDAATYYCQQWTTNPLTFGAGTRVELK
B2: TMC-2206 VH D100A variant antibody (antibody, part only; not given: Light chain, constant regions, V domains shown, part only)
VH: B1 VH with D100A

Experiments:
[1] = target: GST-rat α2 I domain fusion protein (rat); test: SPR (Biacore 2000), antibody captured, GST-α2 I domain in solution
[2] = target: GST-rat α2 I domain fusion protein (rat); test: Eu-TMC-2206 on immobilized GST-α2 I domain at 37 °C, Scatchard
[3] = target: human platelet α2β1 integrin (immobilized on microtiter plates) (human) (UniProt P17301); test: competition with Eu-TMC-2206 on human platelet α2β1-coated plate
human platelet α2β1 integrin (immobilized on microtiter plates) (human), sequence (P17301 30-1181 E534K limits assumed, chain 1 of 2): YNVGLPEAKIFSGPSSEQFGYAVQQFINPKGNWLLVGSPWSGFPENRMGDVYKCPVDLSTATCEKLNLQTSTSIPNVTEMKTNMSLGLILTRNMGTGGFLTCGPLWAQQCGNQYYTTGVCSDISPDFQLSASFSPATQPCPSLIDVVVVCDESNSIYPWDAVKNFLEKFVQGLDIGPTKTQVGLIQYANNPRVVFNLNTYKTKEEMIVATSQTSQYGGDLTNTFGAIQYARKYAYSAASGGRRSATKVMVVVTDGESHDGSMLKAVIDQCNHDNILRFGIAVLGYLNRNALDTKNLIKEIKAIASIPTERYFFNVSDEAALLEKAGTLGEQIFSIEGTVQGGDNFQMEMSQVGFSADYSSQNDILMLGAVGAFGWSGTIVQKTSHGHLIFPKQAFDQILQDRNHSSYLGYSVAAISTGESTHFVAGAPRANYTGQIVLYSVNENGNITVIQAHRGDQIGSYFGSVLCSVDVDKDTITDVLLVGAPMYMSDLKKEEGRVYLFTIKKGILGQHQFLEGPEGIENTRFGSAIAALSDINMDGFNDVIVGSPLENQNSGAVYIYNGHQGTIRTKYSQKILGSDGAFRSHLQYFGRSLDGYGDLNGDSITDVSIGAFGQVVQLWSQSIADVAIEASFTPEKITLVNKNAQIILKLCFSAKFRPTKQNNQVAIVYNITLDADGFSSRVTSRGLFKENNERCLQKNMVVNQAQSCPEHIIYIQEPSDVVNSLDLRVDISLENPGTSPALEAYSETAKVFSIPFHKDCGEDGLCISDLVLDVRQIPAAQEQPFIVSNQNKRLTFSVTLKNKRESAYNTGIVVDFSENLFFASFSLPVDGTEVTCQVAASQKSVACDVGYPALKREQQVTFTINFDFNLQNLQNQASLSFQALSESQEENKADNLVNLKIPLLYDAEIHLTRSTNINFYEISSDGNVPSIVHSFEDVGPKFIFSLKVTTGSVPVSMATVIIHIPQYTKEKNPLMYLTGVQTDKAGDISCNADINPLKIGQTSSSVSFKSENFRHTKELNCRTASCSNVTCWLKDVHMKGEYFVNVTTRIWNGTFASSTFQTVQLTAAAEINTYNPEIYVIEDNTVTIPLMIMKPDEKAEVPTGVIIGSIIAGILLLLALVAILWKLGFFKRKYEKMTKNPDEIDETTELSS
human platelet α2β1 integrin (immobilized on microtiter plates) (human), sequence (chain, as listed by the source limits assumed, chain 2 of 2): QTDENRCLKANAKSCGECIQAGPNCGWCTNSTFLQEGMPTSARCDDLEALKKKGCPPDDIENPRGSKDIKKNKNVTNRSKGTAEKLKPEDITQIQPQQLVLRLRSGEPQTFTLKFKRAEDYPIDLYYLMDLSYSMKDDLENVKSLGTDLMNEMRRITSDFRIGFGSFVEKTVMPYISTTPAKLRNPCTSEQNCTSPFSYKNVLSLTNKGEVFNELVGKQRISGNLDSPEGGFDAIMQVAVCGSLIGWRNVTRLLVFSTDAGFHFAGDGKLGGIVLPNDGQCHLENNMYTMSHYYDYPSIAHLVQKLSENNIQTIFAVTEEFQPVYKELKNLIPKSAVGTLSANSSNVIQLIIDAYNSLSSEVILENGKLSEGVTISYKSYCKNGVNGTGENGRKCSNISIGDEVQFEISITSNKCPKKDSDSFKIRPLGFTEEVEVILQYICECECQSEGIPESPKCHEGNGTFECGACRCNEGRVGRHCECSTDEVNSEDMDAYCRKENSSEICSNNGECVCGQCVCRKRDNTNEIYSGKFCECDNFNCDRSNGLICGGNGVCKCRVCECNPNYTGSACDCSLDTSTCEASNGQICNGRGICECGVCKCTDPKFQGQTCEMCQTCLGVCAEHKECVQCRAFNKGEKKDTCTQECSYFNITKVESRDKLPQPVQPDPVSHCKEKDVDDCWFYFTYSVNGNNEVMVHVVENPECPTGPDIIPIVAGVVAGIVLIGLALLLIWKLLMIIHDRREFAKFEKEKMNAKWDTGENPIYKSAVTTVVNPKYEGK

Binder	Kd [1]	koff [1]	kon [1]	Kd [2]	fold decrease compared to human α2 I domain [2]	fold shift in potency relative to the mouse-human chimeric TMC-2206 antibody [3]
B1	2 nM	0.00082 s⁻¹	420000 M⁻¹ s⁻¹	1.3 nM	6 fold	
B2						> 1600 fold
